Data as given in a protein production outcome set (Wang et al. 2014).

Assay: label from the status in PepcDB records

Protein production, not failed:
MAVKIQTPAGTIEITNDVIATVVGGAATDIYGIVGMASKNQIKDNLNDILRRENYSRGVVVRQEDNGIAVDVYTIVSYGTKISEVSRNVQEKVKYNLETLLGVTANSVNVFVQGVRVLPDLEHHHHHH
MAWNTNLRWRLPLTCLLLQVIMVILFGVFVRYDFEADAHWWSERTHKNLSDMENEFYYRYPSFQDVHVMVFVGFGFLMTFLQRYGFSAVGFNFLLAAFGIQWALLMQGWFHFLQDRYIVVGVENLINADFCVASVCVAFGAVLGKVSPIQLLIMTFFQVTLFAVNEFILLNLLKVKDAGGSMTIHTFGAYFGLTVTRILYRRNLEQSKERQNSVYQSDLFAMIGTLFLWMYWPSFNSAISYHGDSQHRAAINTYCSLAACVLTSVAISSALHKKGKLDMVHIQNATLAGGVAVGTAAEMMLMPYGALIIGFVCGIISTLGFVYLTPFLESRLHIQDTCGINNLHGIPGIIGGIVGAVTAASASLEVYGKEGLVHSFDFQGFNGDWTARTQGKFQIYGLLVTLAMALMGGIIVGLILRLPFWGQPSDENCFEDAVYWEMPEGNSTVYIPEDPTFKPSGPSVPSVPMVSPLPMASSVPLVP
MAYEQFAYVYDELMQDVPYPEWVAWVLEQVEPGKRIADIGCGTGTATLLLADHYEVTGVDLSEEMLEIAQEKAMETNRHVDFWVQDMRELELPEPVDAITILCDSLNYLQTEADVKQTFDSAARLLTDGGKLLFDVHSPYKMETLFNGKTYATHAEQSSYIWFADPGEEPLSVVHELTFFIEGEDGRYDRVDETHHQRTYPPEQYITWLREAGFRVCAVTGDFKSDAPTETAERIFFVAEKI

Protein production, failed:
MAVGLPLLLSSMAMPAQAAPAPEAPGNVAGVAKKNLDPGSYKDGRYMVVLAEKPAATYDGGTAGLAPTKPEEGKKLDVDSAEVKQYQQHLQQKQQEVAQQENVTIKRDFTTAVNGFSATLTADQAINLAKDPKVLMVAPDTQYAPDYSTTDFLKLSGPNGTWATQYGGQDNAGKGTVVGVIDTGYTPSNPFFAGEPVGPLVGNPQVGVPYRTADGKIAMLKADGDTFVGECQPGTDTGADYDGSACNSKVLSTHYFADAFLETVPPENRAPEEVISPVDVDSHGTHTASTAAGNANVDAVVDGRSFGTTSGIAPAAKLSVYKVCWEDTDPATGGCYGSASVDAIEQAILDGVDVLNYSISGSTTSTTDPVSLAFLSAASAGIFVATSAGNSGPTASTVNHGAPWLTTVAATSFSQELQGTVEFSDGSKFRGASIMNREVTGAGVVLSTNAASGEGNAALCAPGSLDPAKVAGKVVVCDRGVVDRTAKSAEVLRGGGVGMILVNLTDSSLDTDKHIIPTVHVNPPATQTIKDKVTANPAITVSLLNRDTTGLPAEAQPQIAGFSSRGPLLATDSDLLKPDVSAPGVAILAGVSPIGTGGDNFGFLSGTSMASPHVAGFGALILAKNPQWSPATVKSAMMTTAGPVKLANGAVNKDVFATGAGQVDPAKVLSPGLVYDATTEDYLKFIQGTGMDLGMEGLGTTQARDMNVPSFALGNLAGKIEVTRTLTALTPGTYRASVNVPGVNVKVTPSVLTFGAPGEKKTFKVQFENNNAALGKFAMGSLNWQGANKTVTSPIAVRPQSVIADKALAFTGTGPNGSGTINITSGTNLPVGVTIDGLSKADSSAVELVPGPFAGETNASNYVKKVTVGEGSALAKFSVISSNEAADFDMLVVTPSGQQLPAATASASETLSVPNPAAGDYYVYANLYASPNNQATKATVDAAVLGANQGNASVTPNPIRLANGKTGQISLNWKNLEPGSYIGRLTFAGTSEPSFVTVLVNPGGAVVVPDEEDPKKDKKDKKHRGKIRADEPTQSNNAG
MAVPPVEMYSGSFWNRMRKPLPLRTQVIRFTVVFVIVSFILAVALQITHERMPDPKVTKPLPDLGFELLTKISFLSVVTDVLIAFLSLLSFFTLWKLYLLHRHCVGSGEPELPCNIPGVSRFFLSVWLCKENCRIELRNIHTIAWIRFITSYALLLLFRSLVIVMTSMPTPVDKCQDPPKIENPVKNVILTVLTAGGGSIHCGDLMYSGHTVILTLHLMFHWIYGAMVHWSFRPVVTVVAIFSYYCIVASRSHYTDDVLVAIYLTIATFIAVGHNADGAPWQLQLFIRWLPCCGANSREVTEDSQPVMVAFKSEAVDELRERDDSAGLSGEVSTNEVVSHHHHHH
MAVSHSVKERTISENSLIILLQGLQGRVTTVDLRDESVAHGRIDNVDAFMNIRLAKVTYTDRWGHQVKLDDLFVTGPNVRYVHIPDDVNITSTIEQQLQIIHRVRNFGGKGQGRWEFPPKNCK
MAVTHRTRRPLRAANKTTNAASLGATCSRQQRARLVHCVGRRTNCLAPALCSPRFTAIPRWSSNAMSMSLADARYLFNRILGLIHRSMASMRTRGWRATWQRIRVHTQAPPVALGTPLWLPQPAPFAAFALPHSAAPRVSVVIPVYNHIAHTLACLRSLAAHPPLVDVEIIVVDDGSSDATAEQLPQVAGLHYHLRASNGGFIAACNDGIALARGDFVVLLNNDTIPQPGWLDRLIDTFAQHPSAGLIGAQLVYPDGRLQESGGVVFGDGSAWSYGRFESSDDPRYAYVRAMDYCSGAAIALPRTLLQTLGGLDRRYMPAYYEDTDLAFAVRAAGYQVLVQPASVVVHDEGTSNGTDTRTGVKAYQVRNQNVFAEKWQQALKAQLPVGTVPGPALLHRGQRQVLILDECVPQPDRDSGSLRQFNLIRLLREEGAHVVFVPTRREHAGRHTQALQQLGAEVWYAPFLEGVGSWLRTHGARFAVVLLVRHHVAHACLPLLKQYAPQARTLFDTVDLHYLRERRGAEVAGDANLLHGAERTRLRELEIMAATDVTLLVSAAEQAQLRTDAPHIRTALLSNLHDVAGSGHSFAQRRDLVFVGGFRHPPNVDAVQWFISAIFPQVRAQLPDVVFHCIGADLPDALKLLADECTGVQLHGHVPDLVPFMDNARIAVAPLRFGAGVKGKINLSMAHGQPVVGTTCAVEGMHLRDGEDVCVADDANAFAAAIVRLYQDAALWQRLADNGLRNVAEYFSLDAARATVRALFIAE
MAVWLKLSLIVLCGCLSCWVGSVWAQPPLPGFAALSAGQYPLADRQLSQAIAHGKATAALYGNRCWVRLSLERYEEAIKDCSVALDLQPHEPETWLNRGLAYYRQGQSQAAIADFDQLLQQSPTDYRAYYNRGLAYLDLAQPEQAIADFQQALERLPATEIGAAVDLHTDRCMGELHRAQPGPAVSACSQALELQPSAARARYLRALAYWQLHQPQAAIADLRQACDAFAQAGATVQLDRARQLLQHWQQQSSLVAQAPRLQSKNWPGAVTYAMDLANCHDRSPLNELEFCCDRAFQQC
MAYATGITFASRSILPICSRTFLSPLRVASLLVFPEKSSATFFRRVQVPHLFSTSTTTLFSSVKCSIHSTSSPETENQAVFRPNVVDILEERGLLESITSENLRSACSDPKVAPLRVYCGFDPTAESLHLGNLLGIIVLSWFQRCGHQAVGLIGGATGRVGDPSGKSLERPELDADTLEKNIAGITKIIIKILGSNPSPGGSYVIFNNYDWWKDMTMLDFLNKVGRFARVGTMMAKESVKKRLESEQGMSYTEFTYQLLQAYDFLHLFKNEGINVQIGGSDQWGNITAGTDLIRKILQAEEAAYGLTFPLLLKNDGTKFGKSEDGAIWLSPSMLSPYKFYQYFFSVPDVDVIRFLKTLTFLSLDEIKILEDQMSKPGYVPNTAQIKLAEEVTRFVHGEEGLKEAIKATEALRPGAETKLDWNLIERIAEDIPSCSLPIDRVSGLSIVDLSVSAGLFESKSAARRMLKQGGFYMNNERVDDENKRVDEEDIVEGRGLVLSAGKKNKVVVRIS
MAYDLWYWDGIPGRGEFVRLALEAGKIPYRDRAREPGEDMLADMRRRRDTAPFAPPYLVADGMTIAQTANILLFLGVEHGLAPPDRAGRLWVNQLQLTIADLTAEAHDVHHPVAAGLYYEDQQDVALRRAADFRETRMPKFMQYFEQALDRPGGWLTDMGRWSYADLSLYHVVEGLLHAFPRRMRTLMHRYPRLMTLHARVAELPELRGYLASDRRLPFGDGIFRHYPELDGA
MAYEDLSKKIIAGVGGKDNVKSVVHCTTRLRFKLKDESATHTDELKDTDGVITVVQSGGQYQVVIGNEVADVYETLIRVGGFADGGSVPDDYEDGEKMSIFDRFIDLISGIFTPMLGVLCAAGMIKGFVAMFVAFNWLSENSGTYKILYSIGDGFFYFLPIVLGLTAAKKFHVDQFVGMAIGMALCYPSIVALNSSKTVLSTLFSGSIFESQIHATFLGIPVVMMSYTSSVIPIILAVWFASKVQAFAKRIVPTVVKTFLVPFITLLIAVPITFLIIGPVASWLSDGISTVCVAIYNFSPIVAGLVMGAFWQVFVIFGVHWGFVAVMMANLASQGFDPILGLSLAASFAQTGVVLGILLQTKNQKTRGIALPAFISGIFGVTEPAIYGLTLPRKRPFILSCVAASIGGGIIGFAGTKMYMMGGMGLFSIPAAINSKTGVDGSVYGLIIAMAIAAVLGFALQMLFGYKSVDSNDKQTKVVETAATADPVMAGGVSVETTPTGAATKVEPNVTYNAATKLSSPETGQIIPLSEVKDEVFSSGAMGKGVAIEPTDGVLYAPADGEVALVFPTGHAVGLNTTDGAEILMHIGMDTVELEGKGFETLVQKGETVKAGQPLVKFDIEAIKAAGYPVTTPMVVTNSKNYHDVKLAFPAATEVNATEPLLQLN
MAYFHGTGSEPAWKQMELVALIGLAAVLLRGPIAAAWKTVASRSNERKRHQRDPAARVGKGAGSKINLAALQYANLKLALREHRCRRLPRLLVTGNDAAVSRLLPELEEAGWFDTCDALLLSSKTSNEGQPDTAWLKRLYKLRRRRPVDAVIVVTDGAADLPMPRRGTHPYSIRLARIIEILRYAAPVYVVDVAGMDPTVSSDAPIIVCALPNQADASAIEEALLLLRNQLARRGLDQLTQEDRYPYQARLSQRFDTRSKALAKWTAGLIAGQIAVRGIAFAPYPSGTSTKPEMPGSADLPHWRYLSEAARRQPGKRIGWHPMTVCVGFALVAVGLWFAGMLASGWFNSRDVYAAQQAVTEIGSARNPATRLHALLALQQQIERYEYRTQQHAPLLTRFGLNRDADVLAALWQPYVKASRELLVTPVQQNLEATLVDLGQLQTTTLDDKTSQWALSGRDDLKAYLMLAYPERTEADFLAGRLPHDWSTEARITPGEKQALAERLFKFYAQHLKANPDWKIEPRPELVAGARQTLLAVIGARSAQETLYRGILNGAGNKYPDLTLPSLTAGTDARGLLRSAAAVPGVFTRQAYEGYVADAIDAAATRRDVAADWVLTGSQVAAVTATKSADELRAALTEQYFAEYAAHWQDFMNSLQWESAATLPAAIDQLKLLADARQSPAIALMKSLAYQGGAGVQKTSLSDTLVNKAKDILGKKDDAPNSAKAAPAGPLDAAFGPVLRLAGQPGQAGQGGNNDLSLQRYLDRITALRLRLQQVSIGADADDQARQMAQAMFQGKSSDLADTQAYAQLVAASLGAEWAGMGETLFVRPVAQATQAIVLPAQASLNDVWQRFIMAEWNRIFAGRYPFANTTNDASLPELAQFLRPQGGTIQTFLATQLAGVLELQGDQWMPAAGARGITFDPEFLKTINILQRIGAHMLVQGDPQYRFELKPIATPGLTDTKLTIDGQKLHYYNQRETWNRMTWPASNLQDPGTLLQWQTEKAGTNKNYEYGGRFALLRMIGHGHIVPIDSATVQITWPAVPDTRGPLEESTDAQSGKAPYEIRFLMRSEAGQGVLELLPLRGLKLPQRVFLVGKGGAAVDVPSPAARNAKRGGV
